Patent publication US20250121087A1, “ANTIBODY-DRUG CONJUGATES COMPRISING ANTI-B7-H3 ANTIBODIES” (priority 2020, published 2025)

B1: Enoblituzumab (antibody, chains of the INN, looked up)
heavy: EVQLVESGGGLVQPGGSLRLSCAASGFTFSSFGMHWVRQAPGKGLEWVAYISSDSSAIYYADTVKGRFTISRDNAKNSLYLQMNSLRDEDTAVYYCGRGRENIYYGSRLDYWGQGTTVTVSSASTKGPSVFPLAPSSKSTSGGTAALGCLVKDYFPEPVTVSWNSGALTSGVHTFPAVLQSSGLYSLSSVVTVPSSSLGTQTYICNVNHKPSNTKVDKRVEPKSCDKTHTCPPCPAPELVGGPSVFLLPPKPKDTLMISRTPEVTCVVVDVSHEDPEVKFNWYVDGVEVHNAKTKPPEEQYNSTLRVVSVLTVLHQDWLNGKEYKCKVSNKALPAPIEKTISKAKGQPREPQVYTLPPSREEMTKNQVSLTCLVKGFYPSDIAVEWESNGQPENNYKTTPLVLDSDGSFFLYSKLTVDKSRWQQGNVFSCSVMHEALHNHYTQKSLSLSPG
light: DIQLTQSPSFLSASVGDRVTITCKASQNVDTNVAWYQQKPGKAPKALIYSASYRYSGVPSRFSGSGSGTDFTLTISSLQPEDFATYYCQQYNNYPFTFGQGTKLEIKRTVAAPSVFIFPPSDEQLKSGTASVVCLLNNFYPREAKVQWKVDNALQSGNSQESVTEQDSKDSTYSLSSTLTLSKADYEKHKVYACEVTHQGLSSPVTKSFNRGEC
B2: AB2 (antibody, V domains shown)
VH: QVQLVESGAEVKKPGASVKLSCKASGYTFSSYWMHWVRQAPGQRLEWMGEINPGNGHTNYNEKFKSRVTITVDKSASTAYMELSSLRSEDTAVYYCVADPRRPKVPTALFVYWGQGTLVTVSS
VL: DIQMTQSPSSVSASVGDRVTISCRASQGIGTWLAWYQQKPGKAPRLLIYAASSLDSGVPSRFSASGSGTDFTLTISSLQPEDFATYYCQQAINFPITFGQGTRLEIK

Columns and labels:
B7-H3 = target: T1, B7-H3 (Homo sapiens, UniProt Q5ZPR3); conditions: Table 1, development state of B7-H3 ADC; cited from earlier work
T1 sequence (Q5ZPR3 29-534): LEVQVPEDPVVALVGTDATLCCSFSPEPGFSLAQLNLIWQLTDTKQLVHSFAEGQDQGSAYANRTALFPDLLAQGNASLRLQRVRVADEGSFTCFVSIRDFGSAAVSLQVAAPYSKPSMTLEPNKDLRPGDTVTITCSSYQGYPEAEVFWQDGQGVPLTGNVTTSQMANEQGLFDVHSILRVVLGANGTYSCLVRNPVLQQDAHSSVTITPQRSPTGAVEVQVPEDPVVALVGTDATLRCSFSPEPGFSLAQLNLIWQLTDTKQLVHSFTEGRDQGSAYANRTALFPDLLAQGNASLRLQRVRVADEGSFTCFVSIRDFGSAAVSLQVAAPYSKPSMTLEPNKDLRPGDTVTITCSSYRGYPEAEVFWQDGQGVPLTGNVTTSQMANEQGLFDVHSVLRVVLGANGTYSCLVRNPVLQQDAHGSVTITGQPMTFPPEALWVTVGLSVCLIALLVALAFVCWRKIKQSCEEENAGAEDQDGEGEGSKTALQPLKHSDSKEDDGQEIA

human 4Ig B7-H3 = target: T2, human 4Ig B7-H3 (Homo sapiens, UniProt Q5ZPR3); experiment: Biacore (SPR) binding kinetics, human 4Ig B7-H3; conditions: analyte Human 4IgB7-H3, antibody as immobilized ligand
T2 construct: purchased Y-Biologics Inc
T2 sequence (Q5ZPR3 29-534): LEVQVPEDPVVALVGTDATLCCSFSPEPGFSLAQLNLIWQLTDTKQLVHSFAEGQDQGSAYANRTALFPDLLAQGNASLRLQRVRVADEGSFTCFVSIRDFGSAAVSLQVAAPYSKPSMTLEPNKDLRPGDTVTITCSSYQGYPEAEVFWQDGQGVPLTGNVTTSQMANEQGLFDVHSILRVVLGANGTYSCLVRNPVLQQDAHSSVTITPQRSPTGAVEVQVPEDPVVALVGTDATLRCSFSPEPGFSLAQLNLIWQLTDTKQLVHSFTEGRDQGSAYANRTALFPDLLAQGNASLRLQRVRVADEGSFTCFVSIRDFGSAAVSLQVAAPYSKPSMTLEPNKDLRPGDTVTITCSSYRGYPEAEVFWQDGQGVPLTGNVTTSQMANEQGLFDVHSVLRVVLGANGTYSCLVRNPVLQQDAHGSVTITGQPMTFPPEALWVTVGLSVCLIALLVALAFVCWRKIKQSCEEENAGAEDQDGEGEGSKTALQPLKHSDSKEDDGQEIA
Protocol: (§1) The binding affinity of the purified anti-B7-H3 monoclonal antibodies was determined by BLI-based OCTET or SPR-based Biacore. Further the binding kinetics of the antibodies binding to human, cynomolgus monkey and mouse B7-H3 antigen are shown in Table 37.
(§2) A Biacore 8K (GE Life science) instrument was used to measure the binding kinetics about several B7-H3 variants (analyte) binding to various mAbs (ligands). Antibodies were captured onto the immobilized anti-human Fc antibody (GE Life science). Anti-Fc antibodies were immobilized to approximately 7,000 RU on CM5 sensor chip using a standard amine coupling method on both active cell and reference cell. For binding kinetic measurements, the HBS-EP+ was used for running buffer (10 mM Hepes, pH7.4, 150 mM NaCl, 3 mM EDTA, 0.05% polysorbate20). Anti-B7-H3 antibodies were diluted to 0.5 ug/mL in running buffer and injected for 110 s on active cells only. After capturing ligand, various B7-H3 antigens were analyzed for 120 s and the dissociation was monitored for 600 s at a flow rate of 30 ul/min. […] Kinetic information was calculated by fitting data to a 1:1 binding model using Biacore Insight Evaluation software (GE Life Science) to determine ka (association constant), kd (dissociation constant), and KD (equilibrium dissociation constant).

human 2Ig B7-H3 = target: T3, human 2Ig B7-H3 (Homo sapiens, UniProt Q5ZPR3); experiment: Biacore (SPR) binding kinetics, human 2Ig B7-H3; conditions: analyte Human 2IgB7-H3, antibody as immobilized ligand
T3 construct: purchased Acrobiosystems
T3 sequence (Q5ZPR3 29-316 isoform Q5ZPR3-2 limits assumed): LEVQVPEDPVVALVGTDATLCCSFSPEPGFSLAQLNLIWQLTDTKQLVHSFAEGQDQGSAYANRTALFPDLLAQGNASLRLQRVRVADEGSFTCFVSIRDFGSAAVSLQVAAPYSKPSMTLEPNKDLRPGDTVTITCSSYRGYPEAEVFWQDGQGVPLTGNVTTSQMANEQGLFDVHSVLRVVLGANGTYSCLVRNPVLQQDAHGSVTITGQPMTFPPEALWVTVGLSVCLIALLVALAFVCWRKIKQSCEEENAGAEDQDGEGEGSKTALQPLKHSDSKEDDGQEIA
Protocol: as §1, §2

cynomolgus monkey B7-H3 = experiment: Biacore (SPR) binding kinetics, cynomolgus monkey B7-H3; conditions: analyte Cyno B7-H3, antibody as immobilized ligand
Protocol: as §1, §2

mouse B7-H3 = target: T4, mouse B7-H3 (Mus musculus, UniProt Q8VE98); experiment: Biacore (SPR) binding kinetics, mouse B7-H3; conditions: analyte Mouse B7-H3, antibody as immobilized ligand
T4 construct: purchased Sino biological Inc
T4 sequence (Q8VE98 29-316): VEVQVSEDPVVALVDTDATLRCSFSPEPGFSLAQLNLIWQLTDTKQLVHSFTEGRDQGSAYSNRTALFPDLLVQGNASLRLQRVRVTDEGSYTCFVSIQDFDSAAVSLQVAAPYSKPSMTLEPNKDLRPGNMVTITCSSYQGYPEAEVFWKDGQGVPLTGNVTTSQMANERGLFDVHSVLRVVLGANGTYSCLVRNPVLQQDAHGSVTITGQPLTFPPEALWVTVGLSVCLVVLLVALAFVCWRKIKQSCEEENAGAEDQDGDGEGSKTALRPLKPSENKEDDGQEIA
Protocol: as §1, §2

Row | Molecule | Kd (B7-H3) | Ka (human 4Ig B7-H3) | Kd (human 4Ig B7-H3) | Ka (human 2Ig B7-H3) | Kd (human 2Ig B7-H3) | Ka (cynomolgus monkey B7-H3) | Kd (cynomolgus monkey B7-H3) | Ka (mouse B7-H3) | Kd (mouse B7-H3)
1 | B1 | 7 nM |  |  |  |  |  |  |  | 
2 | B2 |  | 446000 M⁻¹ s⁻¹ | 0.000199 s⁻¹ | 206000 M⁻¹ s⁻¹ | 0.00515 s⁻¹ | 481000 M⁻¹ s⁻¹ | 0.000442 s⁻¹ | 408000 M⁻¹ s⁻¹ | 0.0193 s⁻¹
